This passage reports binding results from publication PMC10957929.

This series deals with T1, GST-DRG9Nip (Oryza sativa ssp. japonica cv. Nipponbare) (UniProt Q69P58).
T1 sequence: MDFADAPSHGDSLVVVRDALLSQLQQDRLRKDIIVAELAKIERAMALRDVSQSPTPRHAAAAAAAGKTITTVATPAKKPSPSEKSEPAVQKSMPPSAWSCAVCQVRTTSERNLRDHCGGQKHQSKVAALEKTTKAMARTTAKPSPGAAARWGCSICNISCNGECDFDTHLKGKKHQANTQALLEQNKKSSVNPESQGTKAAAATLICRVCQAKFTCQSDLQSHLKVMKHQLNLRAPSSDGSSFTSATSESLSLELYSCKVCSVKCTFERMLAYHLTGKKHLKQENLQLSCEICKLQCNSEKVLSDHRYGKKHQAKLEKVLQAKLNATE
In words: EMSA. As to conditions: 20 mM Hepes pH 7.5, 20 mM KCl2 (so in the source), 1 mM MgCl2, 10 mM ZnCl2, 5 mM DTT, 10% glycerol, 0.1% NP-40, room temperature, 1 h; 6% native PAGE, 0.5x TBE.

Turning to “GGGCUCAAAUUAAUUAGCCAGUGAAAAAUCAAAUUACAGAGUUGCUUAAUUUUUUUACUAGUAGAACGCAACAGUAAAAAGAAUUAACAGCAGUGAAUUAUUAGUUAAUUAGCUAGGGAGUUGAAAUAGUUUAGCGGUCAUGCACUACUGAUUUUUAAUUAGUGCAGACAACGACCGCGUGUGUGUAUAUGCAUGUAUACCUUUUACUGUAUCUUCAGAUUGUGUAUAUAUAUCAUAUAUGUACAGGAAAAGAUUUAUAUAUCAUACAUAUUUUGUUGU [OsNCED4 3'-UTR RNA]”, the binding result is “binds”.
